Source: the DeepSol protein solubility set

Experiment: soluble on expression in E. coli; label from the status in PepcDB or PDB records

Soluble on expression in E. coli, not soluble:
VYAILISDIHVGSKEFCENAFIKFLEWLNGNVETKEEEEIVSRVKYLIIAGDVVDGVGVYPGQYADLTIPDIFDQYEALANLLSHVPKHITMFIAPGNHDAARQAIPQPEFYKEYAKPIYKLKNAVIISNPAVIRLHGRDFLIAHGRGIEDVVGSVPGLTHHKPGLPMVELLKMRHVAPMFGGKVPIAPDPEDLLVIEEVPDVVHMGHVHVYDAVVYRGVQLVNSATWQAQTEFQKMVNIVPTPAKVPVVDIDTAKVVKVLDFSGWC, VYDNDIDTGAKNTLNLDEELQLGELSLDTIRSLEKLAPFGMDNKKPVFWLHDITVTQARTMGQNGAHLKFKVKQGKASFDVVAFNKGHLLQEFQQAQGLELAVTLSVNVWNGQTTLQ, WMQTSDGLRIRAGHWRPEGEVRGTVLMFPGRTEYVEKYGNAAQAFVTRGFAMLAVDWRGQGLADRLLEDRRLGHVLEFTDYQRDVAAVVELATTLDLPRPWFVVGHSMGGAIGLRAVMEGLPVAACAFTGPMWGIFFTPVMKPLSWITANLAPAIGMGHKHPATTTLEPYVQAQEFEGNSLTRDPAMYEMMRSQLAAHPELALGAPTNIWLREALAECRALSDRPSPDLPCLTFLGSHEQIVDRKAVRARMARWPRGELVEIPDGEHEVLMEAPEVRDPAYDRM, YDFIDNPGFDESHSLTEMREAFLSFFEDRDHERIDPYPVAANRWRDDVLLTQASIYDFQPLVTSGTTPPPANPLCISQPCIRMQDIDNVGKTGRHTMAFEMMAHHAFNAREDIEDPEQYAYEGEVYWKNETVQYCDELFEEMGANLDEIVYIEDPWVGGGNAGPAIEVIYRGAELATLVFMSMEQDSDGEYEMKDGNRYSPMDTYIVDTGYGLERWTWMSQGTPTVYEAVYPDMIAFLKDNAGIELTDEEERIVHEAAKLAGRMDI, YEKYRWSISRSGYLIILGRDASQNESIVKKYLRDKDIFLHADIIGAPATIIITQDNKTISEEDIYDAAVMAASYSKAWKVGLASVDIFWVLGNQVSKSPPSGEYLNK, YHPVFSAKIEQRLIERFGVKRALVALDQPNEEAQRLQVSGLVSNYLTSTLKNGMVVTVGQGRNVSSVAHHIGVITPRDCKFVCGIGGIHPRGGMYNADHICRQLAKKYGGTSETLYAPAYAENREQKMAFMQNATVKQTLDLARKADVALVGIGDMSENSYMVDLGWFTPDEVVQSRLKQGVVGDFAGYDFFDIHGNVANTVMSDRVIGLGIEEFRPIAEVIAIAAENSKPLALLGALRTGAIDVIATSVSNALTVLNLDEQMHGNAASES, YKKGIKPDLESITLCREDYESSGGKEIFLSFEDTKNDLLIGYLRLRIPNNPFRKEITDKSALIRQVHVCGQQKELEGNSKELSWQHKGYGRLLIDEAEKIAKEEFEKDQMLINSGIGVREYYKKLRYKRVGPYMGKNLK, YLGEVYTAKTDDGVKIKLLRYHPPGEGVNDGVQPVVLFSGLLCNMNEYLTHTPPELKDLYKTQLPSELADWAVGDERIQQDPMLYYSLAYYLWKQGYDVWLVNYRGTGVGELKSGVGSARTSLDTWAIYDTKAAITKVYEVTGKHPVIGGHSTGGLVSYVYLQGAKFKWTFACLFKKPWCKKVVSDDDLVRERNGLTEGEETVVGVIALDPAMIPPLPKLTDLKLMWLLLDTPLYIDIRGIMNLIAKNDRLWCATTHTIDEVFELIFEMNEEYGQYSELIRDLTFTNPGNMNDELNDFLVRYVADSLYTPTLAHYNDFGTHRTAREYFENGGRSYLIVPPEPNPGKDGYYYYILNMQKVRVPFITLLSEYDALVEAEQIIRDLMEAKTPHQFDEYYIIEGTAHLDLPFGLKAPSEVFPKVGAWLEK, YMVPGLWGAPLKAVSAFAPPMKTQDFNLYTNEVHAKFDDYDLGMEYARQHNKPVMLDFTGYGCVNCRKMELAVWTDPKVSSIINNDYVLITLYVDNKTPLTEPVKIMENGTERTLRTVGDKWSYLQRVKFGANAQPFYVLIDNEGNPLNKSYAYDEDISKYINFLQTGLENYRKEK
